Earlier results on 1 substance are cited in patent US6204360A, “Retro-inverso thymosin alpha 1 hybrids” (USA Universe Bioengineering, Inc., priority 1999, dated 2001).

No end group written: not given here.

For this data set the following is noted: Rost, Int. J. Clin. Pharmacol. Ther. 37:51, 1999.

Consider “thymosin alpha 1 (SDAAVDTSSEITTKDLKEKKEVVEEAEN; ends and bridges not checked; UniProt P06454 2-29, looked up) [TM-alpha1, 28 amino acid acidic peptide purified from thymosin fraction V; immunomodulator]”, for which the half-life in vivo result is recorded as “short half-life in vivo”.
